Measurements reported in patent US20260209386A1 (MYTHIC THERAPEUTICS, published 2026).

T1: Human PTK7 Protein, His Tag (Acro Biosystems) (human, UniProt Q13308 31-704)
T1 construct: Bought His-tagged recombinant human PTK7; also called CCK4; Tyrosine-protein kinase-like 7
T1 sequence: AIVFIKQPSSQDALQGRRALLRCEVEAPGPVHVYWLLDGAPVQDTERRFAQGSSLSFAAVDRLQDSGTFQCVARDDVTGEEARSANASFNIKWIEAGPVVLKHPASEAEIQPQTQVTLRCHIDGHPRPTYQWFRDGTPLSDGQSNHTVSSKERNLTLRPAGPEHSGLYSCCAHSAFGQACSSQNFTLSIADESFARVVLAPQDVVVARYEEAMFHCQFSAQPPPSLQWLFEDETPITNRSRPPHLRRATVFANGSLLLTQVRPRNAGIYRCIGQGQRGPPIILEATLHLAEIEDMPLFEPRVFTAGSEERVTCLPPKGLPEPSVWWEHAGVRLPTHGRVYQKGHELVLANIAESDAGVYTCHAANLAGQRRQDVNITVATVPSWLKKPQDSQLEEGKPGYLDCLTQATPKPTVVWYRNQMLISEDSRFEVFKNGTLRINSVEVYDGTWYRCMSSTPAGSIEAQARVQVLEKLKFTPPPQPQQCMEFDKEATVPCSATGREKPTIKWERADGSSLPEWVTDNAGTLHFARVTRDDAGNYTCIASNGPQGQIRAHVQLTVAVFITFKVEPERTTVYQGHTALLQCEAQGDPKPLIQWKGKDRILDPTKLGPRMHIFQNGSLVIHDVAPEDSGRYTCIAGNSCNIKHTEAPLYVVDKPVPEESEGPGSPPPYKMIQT

T2: Human PTK7 Protein, His Tag, Acro Biosystems (human, UniProt Q13308 31-704)
T2 construct: Bought recombinant protein; also called CCK4; not shown: His tag
T2 sequence: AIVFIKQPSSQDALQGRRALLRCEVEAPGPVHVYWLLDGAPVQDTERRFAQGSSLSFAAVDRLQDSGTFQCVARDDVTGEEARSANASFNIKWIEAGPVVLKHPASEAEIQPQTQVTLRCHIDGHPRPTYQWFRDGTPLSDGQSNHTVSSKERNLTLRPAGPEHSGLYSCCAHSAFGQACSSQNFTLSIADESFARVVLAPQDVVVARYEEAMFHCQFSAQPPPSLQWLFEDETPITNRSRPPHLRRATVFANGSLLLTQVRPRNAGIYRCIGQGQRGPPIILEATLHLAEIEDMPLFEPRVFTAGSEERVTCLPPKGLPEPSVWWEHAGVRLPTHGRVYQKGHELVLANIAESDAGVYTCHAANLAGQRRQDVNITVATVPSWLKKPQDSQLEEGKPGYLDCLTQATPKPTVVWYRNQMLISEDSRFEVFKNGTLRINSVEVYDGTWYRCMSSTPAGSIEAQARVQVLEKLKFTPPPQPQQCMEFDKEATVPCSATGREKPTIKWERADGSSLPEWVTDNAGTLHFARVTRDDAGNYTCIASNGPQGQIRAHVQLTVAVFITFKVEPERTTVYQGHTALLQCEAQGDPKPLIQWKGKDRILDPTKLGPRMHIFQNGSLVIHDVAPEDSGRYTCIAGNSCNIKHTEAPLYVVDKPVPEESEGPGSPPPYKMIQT


Tests used:
[1] = molecular target: T1, Human PTK7 Protein, His Tag (Acro …); test: BLI (Octet), antibody on anti-human Fc sensor, 50 nM PTK7; 1 = pH dependent binding
[2] = molecular target: T2, Human PTK7 Protein, His Tag, Acro …; test: BLI (Octet), antibody on anti-human Fc sensor, 50 nM PTK7 at pH 7.4, dissociation at pH 7.4 or 5.4; 2 = substantially similar binding relative to parent

Row | Binder | binding result [1] | binding result [2]
1 | MYT10951 (antibody, V domains shown, MYT9359 HC variant; captured on anti-human Fc sensor) VH: EVQLVESGGGLVQPGGSLRLSCTASHFSLSSYAMGWVRQAPGKGLEWVGFINAGGNTYYANWAKGRFTISRDTSKNTVYLQMNSLRAEDTAVYFCARRYSRASGWYDLWGQGTLVTVSS VL: EIVMTQSPSTLSASVGDRVIITCQASQSISSYLAWYQQKPGKAPKLLIYAASTLASGVPSRFSGSGSGAEFTLTISSLQPDDFATYYCQSYSYSSGIDYGDVFGQGTKLTVL | binds | 
2 | MYT10959 (antibody, V domains shown, MYT9359 HC variant; captured on anti-human Fc sensor) VH: EVQLVESGGGLVQPGGSLRLSCTASGFSLSSYAHGWVRQAPGKGLEWVGFINAGGNTYYANWAKGRFTISRDTSKNTVYLQMNSLRAEDTAVYFCARRYSRASGWYDLWGQGTLVTVSS VL: EIVMTQSPSTLSASVGDRVIITCQASQSISSYLAWYQQKPGKAPKLLIYAASTLASGVPSRFSGSGSGAEFTLTISSLQPDDFATYYCQSYSYSSGIDYGDVFGQGTKLTVL | binds | 
3 | MYT10963 (antibody, V domains shown, MYT9359 HC variant; captured on anti-human Fc sensor) VH: EVQLVESGGGLVQPGGSLRLSCTASGFSLSSYAMGWVRQAPGKGLEWVGFIHAGGNTYYANWAKGRFTISRDTSKNTVYLQMNSLRAEDTAVYFCARRYSRASGWYDLWGQGTLVTVSS VL: EIVMTQSPSTLSASVGDRVIITCQASQSISSYLAWYQQKPGKAPKLLIYAASTLASGVPSRFSGSGSGAEFTLTISSLQPDDFATYYCQSYSYSSGIDYGDVFGQGTKLTVL | binds | 
4 | MYT10962 (antibody, V domains shown, MYT9359 HC variant; captured on anti-human Fc sensor) VH: EVQLVESGGGLVQPGGSLRLSCTASGFSLSSYAMGWVRQAPGKGLEWVGFHNAGGNTYYANWAKGRFTISRDTSKNTVYLQMNSLRAEDTAVYFCARRYSRASGWYDLWGQGTLVTVSS VL: EIVMTQSPSTLSASVGDRVIITCQASQSISSYLAWYQQKPGKAPKLLIYAASTLASGVPSRFSGSGSGAEFTLTISSLQPDDFATYYCQSYSYSSGIDYGDVFGQGTKLTVL | binds | 
5 | MYT10966 (antibody, V domains shown, MYT9359 HC variant; captured on anti-human Fc sensor) VH: EVQLVESGGGLVQPGGSLRLSCTASGFSLSSYAMGWVRQAPGKGLEWVGFINAGHNTYYANWAKGRFTISRDTSKNTVYLQMNSLRAEDTAVYFCARRYSRASGWYDLWGQGTLVTVSS VL: EIVMTQSPSTLSASVGDRVIITCQASQSISSYLAWYQQKPGKAPKLLIYAASTLASGVPSRFSGSGSGAEFTLTISSLQPDDFATYYCQSYSYSSGIDYGDVFGQGTKLTVL | binds | 
6 | MYT10969 (antibody, V domains shown, MYT9359 HC variant; captured on anti-human Fc sensor) VH: EVQLVESGGGLVQPGGSLRLSCTASGFSLSSYAMGWVRQAPGKGLEWVGFINAGGNTHYANWAKGRFTISRDTSKNTVYLQMNSLRAEDTAVYFCARRYSRASGWYDLWGQGTLVTVSS VL: EIVMTQSPSTLSASVGDRVIITCQASQSISSYLAWYQQKPGKAPKLLIYAASTLASGVPSRFSGSGSGAEFTLTISSLQPDDFATYYCQSYSYSSGIDYGDVFGQGTKLTVL | binds | 
7 | MYT10957 (antibody, V domains shown, MYT9359 HC variant; captured on anti-human Fc sensor) VH: EVQLVESGGGLVQPGGSLRLSCTASGFSLSSHAMGWVRQAPGKGLEWVGFINAGGNTYYANWAKGRFTISRDTSKNTVYLQMNSLRAEDTAVYFCARRYSRASGWYDLWGQGTLVTVSS VL: EIVMTQSPSTLSASVGDRVIITCQASQSISSYLAWYQQKPGKAPKLLIYAASTLASGVPSRFSGSGSGAEFTLTISSLQPDDFATYYCQSYSYSSGIDYGDVFGQGTKLTVL | binds | 
8 | MYT10924 (antibody, V domains shown, MYT9345 variant, His at VL pos 29 (L1 06)) VH: EVQLVESGGGLVQPGGSLRLSCTASGFSLSNYVMNWVRQAPGKGLEWVGIIDSSGSTYYASWAKGRFTISRDTSKNTVYLQMNSLRAEDTAVYFCARGLYLWGQGTLVTVSS VL: EIVMTQSPSTLSASVGDRVIITCQSSQSHYNNNLLAWYQQKPGKAPKLLIYYTSNLASGVPSRFSGSGSGAEFTLTISSLQPDDFATYYCQGGYNGNIYAFGQGTKLTVL |  | binds

Other lines, results leading:

Row | binding result [1] | binding result [2] | Binder
9 |  | binds | MYT10941 (antibody, V domains shown, MYT9345 variant, His at VL pos 93 (L3 03)) VH: EVQLVESGGGLVQPGGSLRLSCTASGFSLSNYVMNWVRQAPGKGLEWVGIIDSSGSTYYASWAKGRFTISRDTSKNTVYLQMNSLRAEDTAVYFCARGLYLWGQGTLVTVSS VL: EIVMTQSPSTLSASVGDRVIITCQSSQSVYNNNLLAWYQQKPGKAPKLLIYYTSNLASGVPSRFSGSGSGAEFTLTISSLQPDDFATYYCQGHYNGNIYAFGQGTKLTVL
10 |  | binds | MYT10933 (antibody, V domains shown, MYT9345 variant, His at VL pos 53 (L2 02)) VH: EVQLVESGGGLVQPGGSLRLSCTASGFSLSNYVMNWVRQAPGKGLEWVGIIDSSGSTYYASWAKGRFTISRDTSKNTVYLQMNSLRAEDTAVYFCARGLYLWGQGTLVTVSS VL: EIVMTQSPSTLSASVGDRVIITCQSSQSVYNNNLLAWYQQKPGKAPKLLIYYHSNLASGVPSRFSGSGSGAEFTLTISSLQPDDFATYYCQGGYNGNIYAFGQGTKLTVL
11 |  | binds | MYT10931 (antibody, V domains shown, MYT9345 variant, His at VL pos 36 (L1 13)) VH: EVQLVESGGGLVQPGGSLRLSCTASGFSLSNYVMNWVRQAPGKGLEWVGIIDSSGSTYYASWAKGRFTISRDTSKNTVYLQMNSLRAEDTAVYFCARGLYLWGQGTLVTVSS VL: EIVMTQSPSTLSASVGDRVIITCQSSQSVYNNNLLHWYQQKPGKAPKLLIYYTSNLASGVPSRFSGSGSGAEFTLTISSLQPDDFATYYCQGGYNGNIYAFGQGTKLTVL
12 |  | binds | MYT10945 (antibody, V domains shown, MYT9345 variant, His at VL pos 97 (L3 07)) VH: EVQLVESGGGLVQPGGSLRLSCTASGFSLSNYVMNWVRQAPGKGLEWVGIIDSSGSTYYASWAKGRFTISRDTSKNTVYLQMNSLRAEDTAVYFCARGLYLWGQGTLVTVSS VL: EIVMTQSPSTLSASVGDRVIITCQSSQSVYNNNLLAWYQQKPGKAPKLLIYYTSNLASGVPSRFSGSGSGAEFTLTISSLQPDDFATYYCQGGYNGHIYAFGQGTKLTVL
13 |  | binds | MYT10948 (antibody, V domains shown, MYT9345 variant, His at VL pos 100 (L3 10)) VH: EVQLVESGGGLVQPGGSLRLSCTASGFSLSNYVMNWVRQAPGKGLEWVGIIDSSGSTYYASWAKGRFTISRDTSKNTVYLQMNSLRAEDTAVYFCARGLYLWGQGTLVTVSS VL: EIVMTQSPSTLSASVGDRVIITCQSSQSVYNNNLLAWYQQKPGKAPKLLIYYTSNLASGVPSRFSGSGSGAEFTLTISSLQPDDFATYYCQGGYNGNIYHFGQGTKLTVL
14 |  | binds | MYT10929 (antibody, V domains shown, MYT9345 variant, His at VL pos 34 (L1 11)) VH: EVQLVESGGGLVQPGGSLRLSCTASGFSLSNYVMNWVRQAPGKGLEWVGIIDSSGSTYYASWAKGRFTISRDTSKNTVYLQMNSLRAEDTAVYFCARGLYLWGQGTLVTVSS VL: EIVMTQSPSTLSASVGDRVIITCQSSQSVYNNNHLAWYQQKPGKAPKLLIYYTSNLASGVPSRFSGSGSGAEFTLTISSLQPDDFATYYCQGGYNGNIYAFGQGTKLTVL
15 |  | binds | MYT10938 (antibody, V domains shown, MYT9345 variant, His at VL pos 58 (L2 07)) VH: EVQLVESGGGLVQPGGSLRLSCTASGFSLSNYVMNWVRQAPGKGLEWVGIIDSSGSTYYASWAKGRFTISRDTSKNTVYLQMNSLRAEDTAVYFCARGLYLWGQGTLVTVSS VL: EIVMTQSPSTLSASVGDRVIITCQSSQSVYNNNLLAWYQQKPGKAPKLLIYYTSNLAHGVPSRFSGSGSGAEFTLTISSLQPDDFATYYCQGGYNGNIYAFGQGTKLTVL
16 |  | binds | MYT10940 (antibody, V domains shown, MYT9345 variant, His at VL pos 92 (L3 02)) VH: EVQLVESGGGLVQPGGSLRLSCTASGFSLSNYVMNWVRQAPGKGLEWVGIIDSSGSTYYASWAKGRFTISRDTSKNTVYLQMNSLRAEDTAVYFCARGLYLWGQGTLVTVSS VL: EIVMTQSPSTLSASVGDRVIITCQSSQSVYNNNLLAWYQQKPGKAPKLLIYYTSNLASGVPSRFSGSGSGAEFTLTISSLQPDDFATYYCQHGYNGNIYAFGQGTKLTVL
17 |  | binds | MYT10934 (antibody, V domains shown, MYT9345 variant, His at VL pos 54 (L2 03)) VH: EVQLVESGGGLVQPGGSLRLSCTASGFSLSNYVMNWVRQAPGKGLEWVGIIDSSGSTYYASWAKGRFTISRDTSKNTVYLQMNSLRAEDTAVYFCARGLYLWGQGTLVTVSS VL: EIVMTQSPSTLSASVGDRVIITCQSSQSVYNNNLLAWYQQKPGKAPKLLIYYTHNLASGVPSRFSGSGSGAEFTLTISSLQPDDFATYYCQGGYNGNIYAFGQGTKLTVL
18 |  | binds | MYT10932 (antibody, V domains shown, MYT9345 variant, His at VL pos 52 (L2 01)) VH: EVQLVESGGGLVQPGGSLRLSCTASGFSLSNYVMNWVRQAPGKGLEWVGIIDSSGSTYYASWAKGRFTISRDTSKNTVYLQMNSLRAEDTAVYFCARGLYLWGQGTLVTVSS VL: EIVMTQSPSTLSASVGDRVIITCQSSQSVYNNNLLAWYQQKPGKAPKLLIYHTSNLASGVPSRFSGSGSGAEFTLTISSLQPDDFATYYCQGGYNGNIYAFGQGTKLTVL
19 |  | binds | MYT10947 (antibody, V domains shown, MYT9345 variant, His at VL pos 99 (L3 09)) VH: EVQLVESGGGLVQPGGSLRLSCTASGFSLSNYVMNWVRQAPGKGLEWVGIIDSSGSTYYASWAKGRFTISRDTSKNTVYLQMNSLRAEDTAVYFCARGLYLWGQGTLVTVSS VL: EIVMTQSPSTLSASVGDRVIITCQSSQSVYNNNLLAWYQQKPGKAPKLLIYYTSNLASGVPSRFSGSGSGAEFTLTISSLQPDDFATYYCQGGYNGNIHAFGQGTKLTVL
